The values that follow come from doi:10.1101/2022.03.25.485794 (bioRxiv, 2022).

Holding throughout (assay): cryo-EM structure
In one assay the target is E. coli NusA (E. coli, UniProt P0AFF6 1-495).
Assay [1] has as its target T1, E. coli [Cys541;Pro607]-σ^70 (E. coli, UniProt P00579 1-613, R541C | L607P).
The target of assay [2] is T1, E. coli [Cys541;Pro607]-σ^70. This is another data set of the same source.

Substitutions are numbered along the chain they refer to. Numbers in names are those of the source. Where two headings read alike, the source gives them in different places.

B1: wild-type Qλ (Q protein of bacteriophage λ) (natural protein, UniProt P03047 1-207, looked up)
chain: MRLESVAKFHSPKSPMMSDSPRATASDSLSGTDVMAAMGMAQSQAGFGMAAFCGKHELSQNDKQKAINYLMQFAHKVSGKYRGVAKLEGNTKAKVLQVLATFAYADYCRSAATPGARCRDCHGTGRAVDIAKTELWGRVVEKECGRCKGVGYSRMPASAAYRAVTMLIPNLTQPTWSRTVKPLYDALVVQCHKEESIADNILNAVTR
B1: the binding result (with E. coli NusA; in assay [1]) was “binds” in each case.

B2: Qλ^M1S (Q protein of bacteriophage λ, M1S derivative) (natural protein, UniProt P03047 1-207, looked up)
chain: B1 chain with M1S
For the molecule B2, in assay [2], the binding result is recorded as “binds”.
